The target in the data set is T1, SFVmac PR-RT WT (simian foamy virus from macaque (SFVmac), UniProt P23074 1-751).
T1 sequence: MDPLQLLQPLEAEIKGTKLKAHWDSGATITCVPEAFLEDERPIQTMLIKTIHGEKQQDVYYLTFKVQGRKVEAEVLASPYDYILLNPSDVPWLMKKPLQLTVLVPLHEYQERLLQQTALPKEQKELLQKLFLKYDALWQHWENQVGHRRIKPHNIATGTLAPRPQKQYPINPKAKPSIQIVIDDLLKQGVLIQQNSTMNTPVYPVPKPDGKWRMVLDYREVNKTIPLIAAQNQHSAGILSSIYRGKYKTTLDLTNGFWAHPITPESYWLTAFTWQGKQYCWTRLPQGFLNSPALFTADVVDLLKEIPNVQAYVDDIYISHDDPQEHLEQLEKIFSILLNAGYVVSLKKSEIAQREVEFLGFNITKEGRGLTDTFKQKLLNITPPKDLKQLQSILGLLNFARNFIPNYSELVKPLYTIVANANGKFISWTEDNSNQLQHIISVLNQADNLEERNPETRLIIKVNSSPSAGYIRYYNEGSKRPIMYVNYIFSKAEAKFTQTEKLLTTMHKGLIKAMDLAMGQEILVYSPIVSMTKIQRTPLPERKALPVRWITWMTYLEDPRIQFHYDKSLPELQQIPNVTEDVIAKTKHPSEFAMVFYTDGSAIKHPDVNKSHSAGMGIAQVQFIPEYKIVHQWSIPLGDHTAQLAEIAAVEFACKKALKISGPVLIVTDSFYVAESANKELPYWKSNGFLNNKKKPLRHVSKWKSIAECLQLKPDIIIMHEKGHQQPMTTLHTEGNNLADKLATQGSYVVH
As to the kind of experiment: fluorescence anisotropy. In general terms: Fluorescence polarisation rises when a labelled molecule tumbles more slowly, as on binding a larger partner.

Here are results for 2 molecules from PMC2241919.

B1: 24/40-mer DNA/RNA P/T (DNA:RNA)
DNA: ATCACCAGGAGAGGGGAAAGCGGA
RNA: CUAAUUCCGCUUUCCCCUCUCCUGGUGAUCCUUUCCAUCC
In turn, B1 registered an equilibrium dissociation constant (Kd) of 32.4 ± 4.2 nM.

B2: 24/40-mer DNA/DNA P/T (dsDNA)
DNA 1: ATCACCAGGAGAGGGGAAAGCGGA
DNA 2: CTAATTCCGCTTTCCCCTCTCCTGGTGATCCTTTCCATCC
Take B2: binding was characterised by a dissociation constant (Kd) of 36.4 ± 2.4 nM.

By Kd is commonly meant the constant that tells how readily two partners part at equilibrium. Low values mean a tighter complex, high ones a looser complex.
